Source: patent publication US20040228849A1 (University of California, published 2004)

How the values were obtained:
[1] = target: T1, Flag-IKKβ
T1 chain: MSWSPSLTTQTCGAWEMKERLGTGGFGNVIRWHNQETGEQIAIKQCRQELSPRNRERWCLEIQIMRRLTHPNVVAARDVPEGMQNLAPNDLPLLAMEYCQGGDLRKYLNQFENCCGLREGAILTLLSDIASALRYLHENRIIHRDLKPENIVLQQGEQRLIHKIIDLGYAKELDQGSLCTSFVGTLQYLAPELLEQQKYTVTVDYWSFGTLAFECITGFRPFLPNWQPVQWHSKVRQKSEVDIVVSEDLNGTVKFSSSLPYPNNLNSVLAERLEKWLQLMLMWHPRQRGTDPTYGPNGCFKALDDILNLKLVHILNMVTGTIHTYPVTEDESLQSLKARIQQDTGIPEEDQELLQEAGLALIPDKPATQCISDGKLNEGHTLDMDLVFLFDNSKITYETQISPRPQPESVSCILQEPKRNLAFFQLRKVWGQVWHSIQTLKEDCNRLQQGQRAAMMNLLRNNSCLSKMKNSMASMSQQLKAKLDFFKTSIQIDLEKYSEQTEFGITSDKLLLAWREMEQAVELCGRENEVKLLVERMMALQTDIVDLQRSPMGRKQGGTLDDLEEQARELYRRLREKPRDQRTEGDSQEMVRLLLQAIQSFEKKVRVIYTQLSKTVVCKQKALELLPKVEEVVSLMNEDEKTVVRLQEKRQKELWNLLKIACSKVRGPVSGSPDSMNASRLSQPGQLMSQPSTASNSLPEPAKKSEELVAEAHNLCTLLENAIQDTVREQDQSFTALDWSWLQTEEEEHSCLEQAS

[2] = target: T2, Flag-IKKβ (human, UniProt O14920 1-756); test: coimmunoprecipitation from transfected 293 cells: anti-HA immune complexes probed with anti-Flag(M2)
T2 construct: Transiently coexpressed in 293 cells
T2 sequence: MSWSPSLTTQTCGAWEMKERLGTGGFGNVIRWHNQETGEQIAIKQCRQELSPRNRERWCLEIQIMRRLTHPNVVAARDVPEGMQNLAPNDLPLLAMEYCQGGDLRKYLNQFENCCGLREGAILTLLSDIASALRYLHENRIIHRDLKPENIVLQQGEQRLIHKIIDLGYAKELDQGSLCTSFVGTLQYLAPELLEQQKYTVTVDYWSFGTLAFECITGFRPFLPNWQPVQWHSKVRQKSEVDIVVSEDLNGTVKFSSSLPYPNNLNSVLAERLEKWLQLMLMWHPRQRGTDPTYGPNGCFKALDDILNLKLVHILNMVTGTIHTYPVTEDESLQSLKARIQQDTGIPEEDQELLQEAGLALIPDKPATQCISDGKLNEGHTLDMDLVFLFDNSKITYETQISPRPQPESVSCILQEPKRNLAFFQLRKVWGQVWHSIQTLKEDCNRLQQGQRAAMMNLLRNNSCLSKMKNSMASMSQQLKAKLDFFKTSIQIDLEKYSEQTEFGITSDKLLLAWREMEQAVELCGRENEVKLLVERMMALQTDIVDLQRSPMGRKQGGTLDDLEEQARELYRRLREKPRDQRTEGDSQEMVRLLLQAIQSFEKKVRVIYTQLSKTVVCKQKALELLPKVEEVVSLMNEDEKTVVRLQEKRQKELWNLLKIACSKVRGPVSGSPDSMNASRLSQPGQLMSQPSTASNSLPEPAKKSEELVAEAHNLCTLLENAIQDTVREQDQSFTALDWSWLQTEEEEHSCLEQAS

[3] = target: T3, IKKβ (full length human IKKβ subunit) (human, UniProt O14920 1-756); test: immunoprecipitation experiments, transfected mammalian cells
T3 construct: Endogenous protein of HeLa cells; also called endogenous IKKβ; 87 kDa protein
T3 sequence: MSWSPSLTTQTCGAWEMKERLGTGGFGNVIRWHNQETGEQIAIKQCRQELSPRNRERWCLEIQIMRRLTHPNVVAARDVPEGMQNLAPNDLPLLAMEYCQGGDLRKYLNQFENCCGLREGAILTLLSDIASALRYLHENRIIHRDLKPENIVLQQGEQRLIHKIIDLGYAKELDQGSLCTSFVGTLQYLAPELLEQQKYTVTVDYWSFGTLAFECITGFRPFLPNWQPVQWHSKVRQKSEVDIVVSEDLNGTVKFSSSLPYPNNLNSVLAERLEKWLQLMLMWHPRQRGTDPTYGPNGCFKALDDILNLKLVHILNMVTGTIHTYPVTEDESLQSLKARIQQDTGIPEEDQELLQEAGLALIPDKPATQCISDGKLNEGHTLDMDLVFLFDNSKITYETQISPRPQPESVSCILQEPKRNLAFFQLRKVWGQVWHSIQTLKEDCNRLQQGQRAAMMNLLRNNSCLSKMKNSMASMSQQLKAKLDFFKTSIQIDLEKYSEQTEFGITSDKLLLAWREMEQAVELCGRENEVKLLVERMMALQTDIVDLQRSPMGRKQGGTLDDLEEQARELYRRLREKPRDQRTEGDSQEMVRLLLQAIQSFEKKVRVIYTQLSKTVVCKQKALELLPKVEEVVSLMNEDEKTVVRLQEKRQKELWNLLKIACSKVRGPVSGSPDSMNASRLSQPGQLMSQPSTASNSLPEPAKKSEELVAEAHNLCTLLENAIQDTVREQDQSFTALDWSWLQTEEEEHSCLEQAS

[4] = target: the molecule itself; test: as above

B1: HA-IKKα(LZ)^- (enzyme, not shown: small tags and cut ends)
chain: MERPPGLRPGAGGPWEMRERLGTGGFGNVCLYQHRELDLKIAIKSCRLELSTKNRERWCHEIQIMKKLNHANVVKACDVPEELNILIHDVPLLAMEYCSGGDLRKLLNKPENCCGLKESQILSLLSDIGSGIRYLHENKIIHRDLKPENIVLQDVGGKIIHKIIDLGYAKDVDQGSLCTSFVGTLQYLAPELFENKPYTATVDYWSFGTMVFECIAGYRPFLHHLQPFTWHEKIKKKDPKCIFACEEMSGEVRFSSHLPQPNSLCSLIVEPMENWLQLMLNWDPQQRGGPVDLTLKQPRCFVLMDHILNLKIVHILNMTSAKIISFLLPPDESLHSLQSRIERETGINTGSQELLSETGISLDPRKPASQCVLDGVRGCDSYMVYLFDKSKTVYEGPFASRSLSDCVNYIVQDSKIQLPIIQLRKVWAEAVHYVSGLKEDYSRLFQGQRAAMLSLLRYNANSTKMKNTSISASQQLKAKLEFFHKSIQLDLERYSEQMTYGISSEKMLKAWKEMEEKAIHYAEVGVIGYLEDQIMSLHAEIMELQKSPYGRRQGDLMESLEQRAIDLYKQLKHRPSDHSYSDSTEMVKIIVHTVQSQDRVLKERFGHLSKLLGCKQKIIDLLPKVEVALSNIKEADNTVMFMQGKRQKEIWHLLKIACTQSSARSLVGSSLEGAVTPQAYAWLAPDLAEHDHSLSCVVTPQDGETSAQMIEENLNCLGHLSTIIHEANEEQGNSMMNLDWSWLTE
notes: Leucine zipper mutant of IKKα; also called IKKα(LZ)^- mutant; IKKα LZ^- mutant
Q: For B1, which “IKK activity isolated by immunoprecipitation with anti-HA (IκB kinase activity)” value [1] is on record?
A: had no effect on the very low activity that coprecipitated with HA-IKKα(LZ)^-

Q: Does B1 bind [2]?
A: no binding

B2: IKKα (full length human IKKα subunit) (enzyme)
chain: MERPPGLRPGAGGPWEMRERLGTGGFGNVCLYQHRELDLKIAIKSCRLELSTKNRERWCHEIQIMKKLNHANVVKACDVPEELNILIHDVPLLAMEYCSGGDLRKLLNKPENCCGLKESQILSLLSDIGSGIRYLHENKIIHRDLKPENIVLQDVGGKIIHKIIDLGYAKDVDQGSLCTSFVGTLQYLAPELFENKPYTATVDYWSFGTMVFECIAGYRPFLHHLQPFTWHEKIKKKDPKCIFACEEMSGEVRFSSHLPQPNSLCSLIVEPMENWLQLMLNWDPQQRGGPVDLTLKQPRCFVLMDHILNLKIVHILNMTSAKIISFLLPPDESLHSLQSRIERETGINTGSQELLSETGISLDPRKPASQCVLDGVRGCDSYMVYLFDKSKTVYEGPFASRSLSDCVNYIVQDSKIQLPIIQLRKVWAEAVHYVSGLKEDYSRLFQGQRAAMLSLLRYNANLTKMKNTLISASQQLKAKLEFFHKSIQLDLERYSEQMTYGISSEKMLKAWKEMEEKAIHYAEVGVIGYLEDQIMSLHAEIMELQKSPYGRRQGDLMESLEQRAIDLYKQLKHRPSDHSYSDSTEMVKIIVHTVQSQDRVLKERFGHLSKLLGCKQKIIDLLPKVEVALSNIKEADNTVMFMQGKRQKEIWHLLKIACTQSSARSLVGSSLEGAVTPQAYAWLAPDLAEHDHSLSCVVTPQDGETSAQMIEENLNCLGHLSTIIHEANEEQGNSMMNLDWSWLTE
notes: Endogenous protein of HeLa or 293 cells; also called endogenous IKKα; 85 kDa protein
Q: Which results are given for B2?
A: binding result [3]: binds; binding result [4]: binds
